Assay results reported in patent US20170088602A1 (Bristol-Myers Squibb, published 2017).
Where a chain is given by its changes, count along the chain named.

Assays:
[1] = molecular target: T1, human BMP-11 (GDF-11; R&D Systems) (human, UniProt O95390 299-407); experiment: cell-based or functional assay
T1 sequence (looked up): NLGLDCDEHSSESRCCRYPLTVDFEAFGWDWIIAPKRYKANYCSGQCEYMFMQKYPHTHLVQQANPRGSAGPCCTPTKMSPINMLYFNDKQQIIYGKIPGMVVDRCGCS

[2] = molecular target: T2, human Activin A (R&D Systems) (human, UniProt P08476 311-426); experiment: cell-based or functional assay
T2 sequence (looked up): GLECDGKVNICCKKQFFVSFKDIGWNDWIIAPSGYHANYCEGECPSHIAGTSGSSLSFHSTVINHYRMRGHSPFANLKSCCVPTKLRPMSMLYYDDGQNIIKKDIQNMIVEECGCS

[3] = molecular target: T3, human myostatin (mature, recombinant; R&D Systems) (human, UniProt O14793 267-375); experiment: cell-based or functional assay
T3 sequence: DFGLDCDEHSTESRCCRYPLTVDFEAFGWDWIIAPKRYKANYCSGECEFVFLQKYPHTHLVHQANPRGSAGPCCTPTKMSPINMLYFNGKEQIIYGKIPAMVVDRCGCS

[4] = molecular target: T3, human myostatin (mature, recombinant; …); experiment: competitive HTRF (1889E01/myostatin/ActRIIb-Fc sandwich)
Excerpt: An HTRF assay was used to measure the binding affinities of anti-myostatin Adnectins to myostatin. […] The Eu-W 1024 labeled Streptavidin is used to bind biotinylated 1889E01. […] In the presence of a competitive Adnectin, the HTRF signal decreases.

[5] = molecular target: T3, human myostatin (mature, recombinant; …); experiment: cell-based or functional assay; remark: listed apart in the source

B1: 3007_B08 (designed binder)
chain: MGVSDVPRDLEVVAATPTSLLISWSLPTPGLAHYYRITYGETGGNSPVQEFTVPGRGVTATISGLKPGVDYTITVYAVTVTHHGVIGYKPISINYRTEIDKPSQHHHHHH
[1]
  ARE-luciferase IC50: 0.23 nM
[2]
  ARE-luciferase IC50: 423 nM
[3]
  ARE-luciferase IC50: 0.06 nM
[4]
  IC50: 0.14 nM
[5]
  pSmad2 % inhibition at 10 nM: 97%

B2: 2987_H02 (designed binder)
chain: B1 chain with T28Y, P29A, L31H, V80L, H82K, H83S, G84K, G87H, K89M
[1]
  ARE-luciferase IC50: 11 nM
[2]
  ARE-luciferase IC50: 794 nM
[3]
  ARE-luciferase IC50: 0.05 nM

B3: 2987_D05 (designed binder)
chain: B1 chain with T28H, P29A, L31H, V80L, H82R, H83S, G84K, V85I, G87H, K89M
[1]
  ARE-luciferase IC50: 2.4 nM
[2]
  ARE-luciferase IC50: 2000 nM
[3]
  ARE-luciferase IC50: 0.11 nM

B4: 2987_F06 (designed binder)
chain: B1 chain with T28H, P29A, L31H, V80L, H82K, H83S, G84K, G87H, K89M
[1]
  ARE-luciferase IC50: 20 nM
[2]
  ARE-luciferase IC50: 538 nM
[3]
  ARE-luciferase IC50: 0.08 nM

B5: 2987_F01 (designed binder)
chain: B1 chain with T28Y, P29A, L31H, V80L, H82R, H83S, G84K, V85I, G87H, K89M
[1]
  ARE-luciferase IC50: 6.5 nM
[2]
  ARE-luciferase IC50: 594 nM
[3]
  ARE-luciferase IC50: 0.05 nM

B6: 2987_E08 (designed binder)
chain: B1 chain with S25T, T28H, P29A, L31R, T81S, H82S, H83T, G84K, G87H
[1]
  ARE-luciferase IC50: 2.8 nM
[2]
  ARE-luciferase IC50: 352 nM
[3]
  ARE-luciferase IC50: 0.05 nM

B7: 2987_A06 (designed binder)
chain: B1 chain with T28H, P29A, L31H, V80L, H82K, H83S, G84K, V85I, G87H, K89M
[1]
  ARE-luciferase IC50: 23 nM
[2]
  ARE-luciferase IC50: 283 nM
[3]
  ARE-luciferase IC50: 0.1 nM

B8: 2987_C02 (designed binder)
chain: B1 chain with T28Y, P29A, L31H, V80L, H82K, H83S, G84K, V85I, G87H, K89M
[1]
  ARE-luciferase IC50: 7.1 nM
[2]
  ARE-luciferase IC50: 464 nM
[3]
  ARE-luciferase IC50: 0.06 nM

B9: 2987_G09 (designed binder)
chain: B1 chain with S25T, T28H, P29A, L31R, T81S, H82S, H83T, G84K, G87V, K89L
[1]
  ARE-luciferase IC50: 0.91 nM
[2]
  ARE-luciferase IC50: > 2000 nM
[3]
  ARE-luciferase IC50: 0.05 nM

B10: 2987_G04 (designed binder)
chain: B1 chain with T28Y, L31H, A32L, H33N, V80L, H82K, H83S, G84K, G87H, K89M
[1]
  ARE-luciferase IC50: 3.3 nM
[2]
  ARE-luciferase IC50: 171 nM
[3]
  ARE-luciferase IC50: 0.09 nM

B11: 3007_C10 (designed binder)
chain: B1 chain with T28S, P29S, L31V, H82N, H83T, G87I
[1]
  ARE-luciferase IC50: 1 nM
[2]
  ARE-luciferase IC50: > 2000 nM
[3]
  ARE-luciferase IC50: 0.03 nM
[4]
  IC50: 0.14 nM
[5]
  pSmad2 % inhibition at 10 nM: 76%

B12: 3008_F01 (designed binder)
chain: B1 chain with T28R, P29Q, H33N, H82A, H83A, G87I
[1]
  ARE-luciferase IC50: 0.12 nM
[2]
  ARE-luciferase IC50: > 2000 nM
[3]
  ARE-luciferase IC50: 0.08 nM
[4]
  IC50: 0.21 nM
[5]
  pSmad2 % inhibition at 10 nM: 86%

B13: 3116_C01 (designed binder)
chain: B1 chain with T28N, L31I, V80L, H82G, H83S, G84D, V85T, G87F
[1]
  ARE-luciferase IC50: 6.7 nM
[2]
  ARE-luciferase IC50: 1000 nM
[3]
  ARE-luciferase IC50: 0.1 nM
[4]
  IC50: 0.35 nM
[5]
  pSmad2 IC50, 4-point: 0.26 nM

B14: 3146_A08 (designed binder)
chain: B1 chain with T28N, L31N, H82D, H83T, V85F, G87T
[1]
  ARE-luciferase IC50: 48 nM
[2]
  ARE-luciferase IC50: > 1000 nM
[3]
  ARE-luciferase IC50: 0.7 nM
[4]
  IC50: 0.26 nM
[5]
  pSmad2 IC50, 4-point: 0.78 nM

B15: 3008_A03 (designed binder)
chain: B1 chain with T28H, P29H, L31F, A32G, H82A, H83T, V85I, G87I
[1]
  ARE-luciferase IC50: 22.6 nM
[2]
  ARE-luciferase IC50: > 2000 nM
[3]
  ARE-luciferase IC50: 0.11 nM
[4]
  IC50: 0.22 nM
[5]
  pSmad2 % inhibition at 10 nM: 87%

B16: 3008_B08 (designed binder)
chain: B1 chain with T28H, P29A, L31D, H82R, H83A, V85F, I86Y, G87R
[1]
  ARE-luciferase IC50: 9.3 nM
[2]
  ARE-luciferase IC50: 254 nM
[3]
  ARE-luciferase IC50: 0.35 nM
[4]
  IC50: 0.37 nM
[5]
  pSmad2 % inhibition at 10 nM: 90%

B17: 3008_D04 (designed binder)
chain: B1 chain with T28H, P29N, L31V, H82R, H83E, G84E, G87S
[1]
  ARE-luciferase IC50: 1.2 nM
[2]
  ARE-luciferase IC50: 720 nM
[3]
  ARE-luciferase IC50: 0.09 nM
[4]
  IC50: 0.14 nM
[5]
  pSmad2 % inhibition at 10 nM: 92%

B18: 3008_G03 (designed binder)
chain: B1 chain with T28H, A32G, V80I, H82P, H83E, G84T, V85I, G87V
[1]
  ARE-luciferase IC50: 1.3 nM
[2]
  ARE-luciferase IC50: > 2000 nM
[3]
  ARE-luciferase IC50: 0.09 nM
[4]
  IC50: 0.13 nM
[5]
  pSmad2 % inhibition at 10 nM: 91%

B19: 3007_C09 (designed binder)
chain: B1 chain with T28H, P29R, L31V, H33N, V80L, H82G, H83A, G84N, G87I
[1]
  ARE-luciferase IC50: 0.89 nM
[2]
  ARE-luciferase IC50: 417 nM
[3]
  ARE-luciferase IC50: 0.04 nM
[4]
  IC50: 0.14 nM
[5]
  pSmad2 % inhibition at 10 nM: 80%

B20: 3008_G01 (designed binder)
chain: B1 chain with T28G, L31H, A32F, H82A, H83N, G84Q, V85P, G87I
[1]
  ARE-luciferase IC50: 0.31 nM
[2]
  ARE-luciferase IC50: > 2000 nM
[3]
  ARE-luciferase IC50: 0.03 nM
[4]
  IC50: 0.11 nM
[5]
  pSmad2 % inhibition at 10 nM: 98%

B21: 3116_C06 (designed binder)
chain: B1 chain with T28R, L31N, H82G, H83K, G84D, G87K
[1]
  ARE-luciferase IC50: 8.9 nM
[2]
  ARE-luciferase IC50: > 1000 nM
[3]
  ARE-luciferase IC50: 0.14 nM
[4]
  IC50: 0.18 nM
[5]
  pSmad2 IC50, 4-point: 0.73 nM

B22: ATI-1340 [N-ethylmaleimide] (designed binder)
chain: MGVSDVPRDLEVVAATPTSLLISWTLPHAGRAHYYRITYGETGGNSPVQEFTVPGRGVTATISGLKPGVDYTITVYAVTVTTTKVIHYKPISINYRTEGSGCHHHHHH
modifications: N-ethylmaleimide on the Cys of the EGSGC tail
notes: cysteine mutant of 2987_H07
[1]
  ARE-luciferase IC50: 4.87 nM
[2]
  ARE-luciferase IC50: 324 nM
[3]
  ARE-luciferase IC50: 0.05 nM
[4]
  IC50: 0.16 nM

B23: 3115_E06 (designed binder)
chain: MGVSDVPRDLEVVAATPTSLLISWDAPAGLARYYRITYGETGGNSPVQEFTVVGRGNTATISGLKPGVDYTITVYAVTIFRDGPVTWDPISINYRTEIDKPSQHHHHHH
[1]
  ARE-luciferase IC50: 2 nM
[2]
  ARE-luciferase IC50: > 1000 nM
[3]
  ARE-luciferase IC50: 0.07 nM
[4]
  IC50: 0.14 nM
[5]
  pSmad2 IC50, 4-point: 0.06 nM

B24: 3116_H06 (designed binder)
chain: B23 chain with P84V, T86N, W87Y, D88G
[1]
  ARE-luciferase IC50: 1.6 nM
[2]
  ARE-luciferase IC50: > 1000 nM
[3]
  ARE-luciferase IC50: 0.1 nM
[4]
  IC50: 0.13 nM
[5]
  pSmad2 IC50, 4-point: 0.06 nM

B25: 3115_D04 (designed binder)
chain: B23 chain with A28R, V53F, N57T, F80D, P84T, V85R, T86S, W87F
[1]
  ARE-luciferase IC50: 3.6 nM
[2]
  ARE-luciferase IC50: > 1000 nM
[3]
  ARE-luciferase IC50: 0.16 nM
[4]
  IC50: 0.2 nM
[5]
  pSmad2 IC50, 4-point: 0.06 nM

B26: 3006_A10 (designed binder)
chain: B23 chain with A28G, V53I, N57S, F80D, P84V, V85N, T86H, W87F, D88A
[1]
  ARE-luciferase IC50: 2 nM
[2]
  ARE-luciferase IC50: > 2000 nM
[3]
  ARE-luciferase IC50: 0.08 nM
[4]
  IC50: 0.15 nM
[5]
  pSmad2 % inhibition at 10 nM: 51%

B27: 3116_A07 (designed binder)
chain: B23 chain with A28K
[1]
  ARE-luciferase IC50: 0.5 nM
[2]
  ARE-luciferase IC50: > 1000 nM
[3]
  ARE-luciferase IC50: 0.04 nM
[4]
  IC50: 0.11 nM
[5]
  pSmad2 IC50, 4-point: 0.06 nM

B28: 2987_B04 (designed binder)
chain: MGVSDVPRDLEVVAATPTSLLISWSLPYPGHLNYYRITYGETGGNSPVQEFTVPGRGVTATISGLKPGVDYTITVYAVTLTKSKIIHYMPISINYRTEIDKPSQHHHHHH
[1]
  ARE-luciferase IC50: 3.3 nM
[2]
  ARE-luciferase IC50: 239 nM
[3]
  ARE-luciferase IC50: 0.12 nM

B29: 2987_B09 (designed binder)
chain: B28 chain with S25T, Y28H, P29A, H31R, L32A, N33H, K82R
[1]
  ARE-luciferase IC50: 0.92 nM
[2]
  ARE-luciferase IC50: 172 nM
[3]
  ARE-luciferase IC50: 0.01 nM

B30: 2987_E03 (designed binder)
chain: B28 chain with K82R
[1]
  ARE-luciferase IC50: 2.3 nM
[2]
  ARE-luciferase IC50: 224 nM
[3]
  ARE-luciferase IC50: 0.1 nM
